The values below come from PMC12990809.

Holding throughout (assay): pulldown
For data set [1], the target named is T1, cpb-2 (Caenorhabditis elegans) (UniProt Q18317).
T1 sequence: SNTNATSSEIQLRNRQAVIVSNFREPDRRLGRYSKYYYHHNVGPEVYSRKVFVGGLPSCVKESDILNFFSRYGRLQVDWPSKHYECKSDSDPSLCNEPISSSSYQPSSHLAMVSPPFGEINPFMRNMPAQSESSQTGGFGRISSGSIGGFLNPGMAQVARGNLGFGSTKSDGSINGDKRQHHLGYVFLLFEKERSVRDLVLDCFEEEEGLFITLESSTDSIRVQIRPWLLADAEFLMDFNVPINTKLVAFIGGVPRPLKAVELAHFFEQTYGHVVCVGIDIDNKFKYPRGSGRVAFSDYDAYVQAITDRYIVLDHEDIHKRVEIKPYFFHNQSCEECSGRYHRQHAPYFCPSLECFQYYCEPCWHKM
As to conditions: 20 nM protein, 1.5 uM RNA pool; 20 mM HEPES pH 7.8, 70 mM KCl, 10 mM NaCl, 10% glycerol, 2 mM DTT, 0.1 ug/uL BSA; 30 min, 4 C.

A further data set deals with T2, TRNAU1AP (Homo sapiens) (UniProt Q9NX07).
T2 sequence: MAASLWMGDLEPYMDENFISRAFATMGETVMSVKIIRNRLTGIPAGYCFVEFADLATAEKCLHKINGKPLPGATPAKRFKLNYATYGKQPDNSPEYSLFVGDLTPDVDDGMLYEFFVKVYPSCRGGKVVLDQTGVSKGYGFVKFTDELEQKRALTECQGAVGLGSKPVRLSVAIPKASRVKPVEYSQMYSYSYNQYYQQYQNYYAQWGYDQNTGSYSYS
As to conditions: 20 nM protein, 1.5 uM RNA pool; 20 mM HEPES pH 7.8, 70 mM KCl, 10 mM NaCl, 10% glycerol, 2 mM DTT, 0.1 ug/uL BSA; 30 min, 4 C.

In data set [2] the target is T3, rsp-1 (Caenorhabditis elegans) (UniProt Q23121).
T3 sequence: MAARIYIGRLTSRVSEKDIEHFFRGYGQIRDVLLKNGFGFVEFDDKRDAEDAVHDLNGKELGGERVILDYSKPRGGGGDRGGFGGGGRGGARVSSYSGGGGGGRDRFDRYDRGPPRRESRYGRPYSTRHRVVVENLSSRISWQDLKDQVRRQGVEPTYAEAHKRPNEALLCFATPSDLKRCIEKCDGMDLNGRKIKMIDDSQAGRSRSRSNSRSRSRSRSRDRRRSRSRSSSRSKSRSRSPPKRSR
Conditions: 20 nM protein, 1.5 uM RNA pool; 20 mM HEPES pH 7.8, 70 mM KCl, 10 mM NaCl, 10% glycerol, 2 mM DTT, 0.1 ug/uL BSA; 30 min, 4 C.

The target of data set [3] is T4, PFI0820c (Plasmodium falciparum) (UniProt Q8I2Y5).
T4 sequence: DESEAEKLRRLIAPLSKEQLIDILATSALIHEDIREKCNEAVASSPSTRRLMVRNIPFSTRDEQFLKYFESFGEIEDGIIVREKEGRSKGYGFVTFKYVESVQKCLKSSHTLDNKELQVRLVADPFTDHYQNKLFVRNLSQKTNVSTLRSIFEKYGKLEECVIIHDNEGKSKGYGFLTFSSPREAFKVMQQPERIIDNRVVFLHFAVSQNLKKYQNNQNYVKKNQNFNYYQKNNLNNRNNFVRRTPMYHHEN
Conditions: 20 nM protein, 1.5 uM RNA pool; 20 mM HEPES pH 7.8, 70 mM KCl, 10 mM NaCl, 10% glycerol, 2 mM DTT, 0.1 ug/uL BSA; 30 min, 4 C.

In data set [4] the target is lark (Drosophila melanogaster) (UniProt Q94901). As to conditions: 20 nM protein, 1.5 uM RNA pool; 20 mM HEPES pH 7.8, 70 mM KCl, 10 mM NaCl, 10% glycerol, 2 mM DTT, 0.1 ug/uL BSA; 30 min, 4 C (protocol of this paper; not …); cited from earlier work.
Sequence of lark (Drosophila melanogaster) (Q94901 1-207): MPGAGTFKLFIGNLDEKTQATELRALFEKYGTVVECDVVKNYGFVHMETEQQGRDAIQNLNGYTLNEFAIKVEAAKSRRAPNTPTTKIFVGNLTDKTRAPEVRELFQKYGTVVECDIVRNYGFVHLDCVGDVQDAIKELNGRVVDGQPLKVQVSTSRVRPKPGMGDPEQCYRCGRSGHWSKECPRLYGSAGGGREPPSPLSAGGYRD
The target of the next data set is T5, RBM45 (Homo sapiens) (UniProt Q8IUH3).
T5 sequence: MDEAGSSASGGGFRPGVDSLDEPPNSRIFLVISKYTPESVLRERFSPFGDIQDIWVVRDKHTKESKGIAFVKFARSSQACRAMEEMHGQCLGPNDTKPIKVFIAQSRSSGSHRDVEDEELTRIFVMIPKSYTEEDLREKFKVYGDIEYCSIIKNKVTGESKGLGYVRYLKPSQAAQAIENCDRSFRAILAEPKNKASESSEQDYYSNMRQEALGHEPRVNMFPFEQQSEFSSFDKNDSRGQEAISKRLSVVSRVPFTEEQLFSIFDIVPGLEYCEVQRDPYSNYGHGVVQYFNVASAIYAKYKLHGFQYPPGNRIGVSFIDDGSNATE
As to conditions: 20 nM protein, 1.5 uM RNA pool; 20 mM HEPES pH 7.8, 70 mM KCl, 10 mM NaCl, 10% glycerol, 2 mM DTT, 0.1 ug/uL BSA; 30 min, 4 C.

The target of the next data set is T6, ESRP1 (Homo sapiens) (UniProt Q6NXG1).
T6 sequence: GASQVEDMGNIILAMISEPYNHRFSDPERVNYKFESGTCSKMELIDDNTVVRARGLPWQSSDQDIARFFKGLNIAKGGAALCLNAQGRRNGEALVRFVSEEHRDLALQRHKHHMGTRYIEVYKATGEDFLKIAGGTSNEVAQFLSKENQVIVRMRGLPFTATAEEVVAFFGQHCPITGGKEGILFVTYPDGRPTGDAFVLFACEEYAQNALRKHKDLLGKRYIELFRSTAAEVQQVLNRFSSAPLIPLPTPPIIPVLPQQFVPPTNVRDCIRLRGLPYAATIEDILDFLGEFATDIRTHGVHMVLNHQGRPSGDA
Conditions: 20 nM protein, 1.5 uM RNA pool; 20 mM HEPES pH 7.8, 70 mM KCl, 10 mM NaCl, 10% glycerol, 2 mM DTT, 0.1 ug/uL BSA; 30 min, 4 C.

Data set [5] concerns the target T7, U2B'' (Arabidopsis thaliana) (UniProt O22922).
T7 sequence: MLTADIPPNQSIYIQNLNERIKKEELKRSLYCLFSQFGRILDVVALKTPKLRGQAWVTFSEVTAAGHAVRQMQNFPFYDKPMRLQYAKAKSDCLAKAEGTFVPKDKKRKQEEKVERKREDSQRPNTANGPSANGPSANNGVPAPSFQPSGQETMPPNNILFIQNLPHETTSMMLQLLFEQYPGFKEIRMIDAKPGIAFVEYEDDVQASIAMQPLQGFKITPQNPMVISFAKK
As to conditions: 20 nM protein, 1.5 uM RNA pool; 20 mM HEPES pH 7.8, 70 mM KCl, 10 mM NaCl, 10% glycerol, 2 mM DTT, 0.1 ug/uL BSA; 30 min, 4 C.

Data set [6] concerns the target T8, tdp-1 (Caenorhabditis elegans) (UniProt D0VWM8).
T8 sequence: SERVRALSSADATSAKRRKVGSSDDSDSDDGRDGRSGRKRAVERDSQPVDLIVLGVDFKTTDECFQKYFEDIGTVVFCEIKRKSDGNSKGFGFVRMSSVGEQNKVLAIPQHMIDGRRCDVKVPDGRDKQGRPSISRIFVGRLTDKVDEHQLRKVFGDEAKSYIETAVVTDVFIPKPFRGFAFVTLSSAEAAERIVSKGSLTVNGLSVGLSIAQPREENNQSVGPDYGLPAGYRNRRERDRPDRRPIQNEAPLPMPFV
Conditions: 20 nM protein, 1.5 uM RNA pool; 20 mM HEPES pH 7.8, 70 mM KCl, 10 mM NaCl, 10% glycerol, 2 mM DTT, 0.1 ug/uL BSA; 30 min, 4 C.

In data set [7] the target is T9, PFE0865c (Plasmodium falciparum) (UniProt Q8I3T5).
T9 sequence: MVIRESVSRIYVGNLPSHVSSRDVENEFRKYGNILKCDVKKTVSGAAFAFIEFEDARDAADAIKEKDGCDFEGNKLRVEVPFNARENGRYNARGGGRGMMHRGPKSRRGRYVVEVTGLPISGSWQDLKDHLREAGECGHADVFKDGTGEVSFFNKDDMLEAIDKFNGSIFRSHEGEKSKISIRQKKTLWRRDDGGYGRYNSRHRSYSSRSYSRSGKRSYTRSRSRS
As to conditions: 20 nM protein, 1.5 uM RNA pool; 20 mM HEPES pH 7.8, 70 mM KCl, 10 mM NaCl, 10% glycerol, 2 mM DTT, 0.1 ug/uL BSA; 30 min, 4 C.

In turn, UUUNUA [RNAcompete motif RNCMPT00794] returned a binding signal (z-score (mean of top ten 7-mers)) in data set [1] of 14.9.

With AAUUU [RNAcompete motif RNCMPT00813], in the data set with TRNAU1AP (Homo sapiens), the binding signal (z-score (mean of top ten 7-mers)) was 7.72.

GGAGGAG [RNAcompete motif RNCMPT00801] displayed a binding signal (z-score (mean of top ten 7-mers)) in [2] of 9.02.

For the substance GAGAGAA [RNAcompete motif RNCMPT00793], the binding signal (z-score (mean of top ten 7-mers)) in data set [3] amounted to 6.18.

Regarding UCGCGCG [RNAcompete motif RNCMPT00097], the binding signal (z-score (mean of top ten 7-mers)) in data set [4] was 15.5.

As for GACAGA [RNAcompete motif RNCMPT00805], the binding signal (z-score (mean of top ten 7-mers)) in the data set with RBM45 (Homo sapiens) was 12.2.

In turn, GGAUGGGG [RNAcompete motif RNCMPT00808] showed a binding signal (z-score (mean of top ten 7-mers)) in the data set with ESRP1 (Homo sapiens) of 6.61.

In turn, UUGCACA [RNAcompete motif RNCMPT01660] showed a binding signal (z-score (mean of top ten 7-mers)) in data set [5] of 14.2.

As to GAGAGA [RNAcompete motif RNCMPT00816], in [6], the binding signal (z-score (mean of top ten 7-mers)) was 11.6.

In turn, GAUGAAC [RNAcompete motif RNCMPT00800] registered a binding signal (z-score (mean of top ten 7-mers)) in [7] of 6.53.
